Values of other authors, collected in PMC8892085.

Target: TLR4 (Homo sapiens) (UniProt O00206)
Sequence (O00206 24-839): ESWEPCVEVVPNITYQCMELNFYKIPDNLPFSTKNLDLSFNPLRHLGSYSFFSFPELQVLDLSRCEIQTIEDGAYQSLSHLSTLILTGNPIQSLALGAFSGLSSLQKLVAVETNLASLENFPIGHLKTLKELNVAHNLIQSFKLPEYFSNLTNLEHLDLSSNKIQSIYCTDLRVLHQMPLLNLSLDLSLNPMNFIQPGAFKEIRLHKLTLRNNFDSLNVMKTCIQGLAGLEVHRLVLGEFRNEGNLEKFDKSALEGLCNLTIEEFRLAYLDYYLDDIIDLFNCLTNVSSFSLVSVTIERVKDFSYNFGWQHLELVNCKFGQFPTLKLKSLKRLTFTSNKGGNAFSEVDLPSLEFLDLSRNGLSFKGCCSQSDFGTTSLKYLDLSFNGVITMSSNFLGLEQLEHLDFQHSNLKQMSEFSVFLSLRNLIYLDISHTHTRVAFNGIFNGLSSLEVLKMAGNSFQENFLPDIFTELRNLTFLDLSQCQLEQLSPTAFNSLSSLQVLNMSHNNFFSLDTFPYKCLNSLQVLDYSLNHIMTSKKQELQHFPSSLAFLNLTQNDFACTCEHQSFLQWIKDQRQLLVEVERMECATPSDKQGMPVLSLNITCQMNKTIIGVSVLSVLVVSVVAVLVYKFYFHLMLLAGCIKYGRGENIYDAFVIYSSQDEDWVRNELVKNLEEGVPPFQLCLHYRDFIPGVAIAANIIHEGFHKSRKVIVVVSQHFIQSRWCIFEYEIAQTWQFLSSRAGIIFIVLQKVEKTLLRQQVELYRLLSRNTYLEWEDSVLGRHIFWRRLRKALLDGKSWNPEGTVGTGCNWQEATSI

Chain of HMGB1 (P09429 whole entry): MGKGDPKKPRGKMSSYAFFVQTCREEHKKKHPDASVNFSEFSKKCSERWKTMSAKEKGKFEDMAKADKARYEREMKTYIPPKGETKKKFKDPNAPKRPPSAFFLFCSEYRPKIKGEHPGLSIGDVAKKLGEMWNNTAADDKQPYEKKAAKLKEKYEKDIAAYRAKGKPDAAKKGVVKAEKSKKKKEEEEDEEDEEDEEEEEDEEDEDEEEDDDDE

For HMGB1 (from UniProt P09429), the Kd is listed as 600 nM.
